According to article PMC5877952 (Proceedings of the National Academy of Sciences of the …, 2018):

Target: T1, SAX-3–Flag (C. elegans, UniProt G5EBF1 24-1273)
T1 sequence (looked up): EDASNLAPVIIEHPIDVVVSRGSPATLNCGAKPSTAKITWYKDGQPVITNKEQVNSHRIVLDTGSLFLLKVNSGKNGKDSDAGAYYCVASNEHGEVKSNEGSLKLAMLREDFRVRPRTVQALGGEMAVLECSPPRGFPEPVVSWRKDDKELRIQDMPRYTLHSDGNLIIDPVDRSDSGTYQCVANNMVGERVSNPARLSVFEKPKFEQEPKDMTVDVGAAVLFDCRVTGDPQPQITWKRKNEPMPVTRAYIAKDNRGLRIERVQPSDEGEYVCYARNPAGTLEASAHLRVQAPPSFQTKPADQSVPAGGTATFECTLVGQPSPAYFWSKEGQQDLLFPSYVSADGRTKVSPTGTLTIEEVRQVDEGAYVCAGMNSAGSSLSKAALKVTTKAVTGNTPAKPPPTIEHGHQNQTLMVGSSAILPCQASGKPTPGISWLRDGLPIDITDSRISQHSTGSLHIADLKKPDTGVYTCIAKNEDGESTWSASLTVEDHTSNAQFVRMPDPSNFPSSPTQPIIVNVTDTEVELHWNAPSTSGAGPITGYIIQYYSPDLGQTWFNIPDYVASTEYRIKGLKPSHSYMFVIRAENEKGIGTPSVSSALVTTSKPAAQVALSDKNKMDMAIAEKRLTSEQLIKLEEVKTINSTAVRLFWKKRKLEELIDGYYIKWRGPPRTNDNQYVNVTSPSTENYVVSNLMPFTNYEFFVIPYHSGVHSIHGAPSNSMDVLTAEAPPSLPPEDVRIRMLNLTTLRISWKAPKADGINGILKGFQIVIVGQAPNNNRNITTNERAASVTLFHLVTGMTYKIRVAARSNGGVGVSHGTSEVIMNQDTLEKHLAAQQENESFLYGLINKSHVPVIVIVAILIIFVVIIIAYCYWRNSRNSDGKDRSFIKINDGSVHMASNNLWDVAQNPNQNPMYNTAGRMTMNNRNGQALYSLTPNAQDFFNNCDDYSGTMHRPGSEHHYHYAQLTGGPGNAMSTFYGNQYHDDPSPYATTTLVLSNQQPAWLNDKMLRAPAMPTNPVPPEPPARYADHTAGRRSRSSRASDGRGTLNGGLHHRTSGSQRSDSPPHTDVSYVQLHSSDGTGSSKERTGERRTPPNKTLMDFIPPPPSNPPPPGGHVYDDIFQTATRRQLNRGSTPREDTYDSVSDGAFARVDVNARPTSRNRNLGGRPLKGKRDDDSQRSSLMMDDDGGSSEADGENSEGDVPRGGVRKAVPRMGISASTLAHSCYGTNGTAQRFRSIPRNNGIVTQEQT
Assay: pull-down

binding result: binds
B1: CWN-2–GST (ligand, C. elegans, UniProt P34889 38-360, looked up)
chain: AGHNVKPVCELPGLSPGQAQVCELFKDHMPAVSIGAQNAIQECQRQFTGHRWNCSTHYSTGMLGPIHKMATREAAFTYAILSAGVTHEIGRRCKQGLLTSCGCSDETKPKNVPTDWSWGGCGDNVEYGYKFSRDFIDIREKEHDPKRNHDNGRSLMNRRNNEAGRKILKRHRKPKCKCHGVSGACNMKTCWMQLPSMEQVGKILRNKYDKAIRVQINDRGNLQLLADEATKERKTRALPTDLVFMDDSPDYCRFDRHSGTLGTEGRVCKRGSGGAEGCDSLCCGRGYNTYTQEVKSKCNCKFEWCCKVVCQTCNNVTQVDICK
